What all share (details): both partners purified
Assay [1] deals with T1, WT-HBc capsids (hepatitis B core protein, genotype D; strain ayw; GenBank: V01460.1) (Hepatitis B virus (genotype D; strain …, UniProt P03146 1-183).
T1 construct: also called HBc-WT; HBc-CLPs; copies: 240
In words: ITC.

Assay [2] concerns the target T2, P5T-HBc capsids (Hepatitis B virus (genotype D; strain …, UniProt P03146 1-183, P5T).
T2 construct: copies: 240
Kind of assay: cryo-EM structure.

The target of assay [3] is T3, L60V-HBc capsids (Hepatitis B virus (genotype D; strain …, UniProt P03146 1-183, L60V).
T3 construct: copies: 240
Kind of assay: cryo-EM structure.

The target in assay [4] is T4, F97L-HBc capsids (Hepatitis B virus (genotype D; strain …, UniProt P03146 1-183, F97L).
T4 construct: copies: 240
Kind of assay: cryo-EM structure.

In assay [5] the target is T2, P5T-HBc capsids. Kind of assay: ITC. In general terms: In ITC the heat of successive injections is recorded.
In assay [6] the target is T3, L60V-HBc capsids. In words: ITC.
Assay [7] concerns the target T4, F97L-HBc capsids. In words: ITC.
Assay [8] has as its target T1, WT-HBc capsids (hepatitis B core …). In words: peptide or protein array.

Ends that are not written are not given here.

Regarding MHRSLLGRMKGA (source: synthetic peptide) [Peptide P1 “MHRSLLGRMKGA”], in assay [1], the affinity, expressed as Kd, was 26 µM; the dH is -9 kcal/mol; the “stoichiometry N” value came out at 0.45 peptide/HBc. Besides, in the assay with P5T-HBc capsids [2], the binding result is recorded as “binds”. In addition, the binding result with L60V-HBc capsids [3] was “binds”. For the same molecule, the binding result in the assay with F97L-HBc capsids [4] is recorded as “binds”.
Take GSLLGRMKGA (source: synthetic peptide) [Peptide P2 “GSLLGRMKGA”]: the dH with P5T-HBc capsids [5] was -7.7 kcal/mol; with L60V-HBc capsids [6], -6.6 kcal/mol; with F97L-HBc capsids [7], -9.9 kcal/mol; in assay [1], -14.4 kcal/mol. Further, the “stoichiometry N” value in the assay with P5T-HBc capsids [5] was 0.45 peptide/HBc; in the assay with L60V-HBc capsids [6] it was 0.5 peptide/HBc; in the assay with F97L-HBc capsids [7], 0.52 peptide/HBc; in assay [1] it was 0.48 peptide/HBc.

B1: Peptide “SLLGRM” (core binding motif) (peptide)
peptide: H-SLLGRM-NH2
notes: shortened stretch of P2; source: synthetic peptide (Fmoc solid-phase synthesis, HPLC purified)
B1: in assay [1], the Kd came out at 130 µM, the dH is -8.3 kcal/mol and the “stoichiometry N” value came to 0.25 peptide/HBc.
Turning to GSLLGRMKGA (not fully specified (C-terminus)) [Peptide P2 “GSLLGRMKGA” on µSPOT peptide microarray], in assay [8], the binding result was “binds”.

A word on the Kd: it is the concentration at which binding is half-saturated. What is called stoichiometry N is the number of molecules, sites or subunits per partner or assembly.

For the origin of these results see paper PMC8145704 (Microorganisms, 2021).
